Results as given in patent US20230002486A1 (SPARX THERAPEUTICS, published 2023).
Changes are numbered by the printed parent chain. Read-outs that look alike come from different tables or passages of the source.

Columns and labels:
[1] = biological target: T1, PD-L1 (programmed death-ligand 1), recombinant protein (human, UniProt Q9NZQ7 19-238, limits assumed); assay: direct ELISA on coated human PD-L1
T1 construct: the other ELISAs print only 'PD-L1'; also called human PDL1; CD274

[2] = biological target: T1, PD-L1 (programmed death-ligand 1), …; assay: ELISA, coated human PDL1 (FIG. 30B)
[3] = biological target: claudin 18.2 (CLDN 18.2), recombinant protein (human); assay: direct ELISA on coated CLDN 18.2
Chain of claudin 18.2 (CLDN 18.2), recombinant protein (human) (chain, as listed by the source limits assumed): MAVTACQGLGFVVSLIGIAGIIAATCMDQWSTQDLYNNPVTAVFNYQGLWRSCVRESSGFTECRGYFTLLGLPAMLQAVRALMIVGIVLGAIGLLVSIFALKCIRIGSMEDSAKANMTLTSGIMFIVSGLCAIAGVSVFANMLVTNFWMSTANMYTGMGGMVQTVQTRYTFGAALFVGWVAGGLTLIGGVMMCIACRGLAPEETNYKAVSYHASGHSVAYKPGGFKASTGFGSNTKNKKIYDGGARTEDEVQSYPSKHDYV

[4] = biological target: claudin 18.2 (CLDN 18.2), recombinant protein (human); assay: ELISA, coated CLDN18.2 (FIG. 30A)
mouse PDL1 = mouse PDL1 (mouse, UniProt Q9EP73 19-238, limits assumed); assay: ELISA, coated mouse PDL1 (FIG. 30B)
Chain of mouse PDL1 (Q9EP73 19-238 limits assumed): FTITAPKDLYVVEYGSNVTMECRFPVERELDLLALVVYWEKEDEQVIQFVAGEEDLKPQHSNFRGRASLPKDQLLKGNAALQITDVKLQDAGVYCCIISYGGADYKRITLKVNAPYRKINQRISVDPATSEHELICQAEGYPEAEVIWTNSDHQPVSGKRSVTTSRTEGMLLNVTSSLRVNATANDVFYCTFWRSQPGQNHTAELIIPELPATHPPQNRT

[5] = biological target: T2, CLDN 18.2 fused with GFP at its C-terminal, on MCF7 cells (MCF7-CLDN 18.2) (human); assay: cell-based or functional assay
T2 sequence (chain, as listed by the source): as the sequence (chain, as listed by the source limits assumed) above

[6] = biological target: T3, CLDN 18.2 expressed on stably transfected cells (HEK293T-CLDN 18.2, MiaPaCa-CLDN 18.2) (human); assay: cell-based or functional assay
T3 sequence (chain, as listed by the source limits assumed): as above

[7] = biological target: T2, CLDN 18.2 fused with GFP at its …; assay: cell-based or functional assay; remark: listed apart in the source
[8] = biological target: T3, CLDN 18.2 expressed on stably …; assay: cell-based or functional assay; remark: listed apart in the source
[9] = biological target: claudin 18.2 (CLDN 18.2), recombinant protein (human); assay: direct ELISA, coated recombinant CLDN 18.2 (FIG. 7A)
[10] = biological target: claudin 18.2 (CLDN 18.2), recombinant protein (human); assay: direct ELISA, coated recombinant CLDN 18.2
Source text: ELISA assay was employed to determine the binding properties of the bispecific antibodies to their antigens. […] The wells were then reacted with goat anti human IgG antibody conjugated with horseradish peroxidase (HRP).

[11] = biological target: claudin 18.2 (CLDN 18.2), recombinant protein (human); assay: direct ELISA, coated CLDN 18.2 (FIG. 28A)
[12] = biological target: claudin 18.2 (CLDN 18.2), recombinant protein (human); assay: competitive phage ELISA, phage-displayed Fab, coated and soluble CLDN 18.2; parameters: unit not given here
Procedure: (§1) After 15 min incubation and washing, anti-M13 antibody/HRP conjugate was added and incubated for 30 min, then developed with TMB for 5-10 min and quenched with 1 M phosphoric acid. Binding signal was analyzed by the plate reader.
(§2) To identify clones with improved solubility, CDR light chain residue 55 (LC55E or L2) was mutated back to Glu on clones 9O47, 5C9oap-oae, 9O24-oae, 9O36-oae, 9O45-oae, and 9O47-oae.

[13] = biological target: claudin 18.2 (CLDN 18.2), recombinant protein (human); assay: competitive phage ELISA: phage-displayed Fab pre-incubated with a dilution series of soluble CLDN 18.2 (axis: GFP-CLDN 18.2, nM), then added to plate-coated CLDN 18.2
Procedure: as §1, §2

[14] = biological target: claudin 18.2 (CLDN 18.2), recombinant protein (human); assay: as above; remark: listed apart in the source
Procedure: as §1

[15] = biological target: T1, PD-L1 (programmed death-ligand 1), …; assay: direct ELISA, coated PD-L1 (FIG. 28B)

T1 sequence (Q9NZQ7 19-238 limits assumed): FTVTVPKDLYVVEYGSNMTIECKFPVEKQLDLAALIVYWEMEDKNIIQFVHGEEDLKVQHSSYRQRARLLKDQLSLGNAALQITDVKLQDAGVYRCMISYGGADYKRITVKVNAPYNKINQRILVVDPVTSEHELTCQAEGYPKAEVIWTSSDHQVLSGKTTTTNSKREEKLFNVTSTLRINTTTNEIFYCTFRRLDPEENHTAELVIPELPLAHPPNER

B1: OB12A4, two-chain anti-CLDN 18.2/anti-PD-L1 (12A4) bispecific antibody (bispecific antibody)
chain 1: not shown
chain 2: EIVLTQSPATLSLSPGERATLSCRASQSVSSYLAWYQQKPGQAPRLLIYDASNRATGIPARFSGSGSGTDFTLTISSLEPEDFAVYYCQQRSNWPTFGQGTKVEIKSGGGGEVQLVESGGGLVQPGGSLRLSCAVSGYTFSMNWVRQAPGKGLEWVAWINMYTGEPTYADDFKGRFTISRDDSKNTLYLQMNSLRAEDTAVYYCARLYNGNSLDYWGQGTLVTVSSGGGGSEPKSSDKTHTCPPCPAPELLGGPSVFLFPPKPKDTLMISRTPEVTCVVVDVSHEDPEVKFNWYVDGVEVHNAKTKPREEQYNSTYRVVSVLTVLHQDWLNGKEYKCKVSNKALPAPIEKTISKAKGQPREPQVCTLPPSREEMTKNQVSLSCAVKGFYPSDIAVEWESNGQPENNYKTTPPVLDSDGSFFLVSKLTVDKSRWQQGNVFSCSVMHEALHNRFTQKSLSLSPGK
EC50 (read off the curve) [1]: ~0.4 nM | Kd [2]: 0.412 nM | EC50 (read off the curve) [3]: ~0.2 nM | Kd [4]: 0.212 nM | Kd (mouse PDL1): ~11100 nM

B2: h5C9ob, monospecific parent anti-CLDN 18.2 monoclonal antibody (IgG) (antibody, V domains shown)
VH: EVQLVESGGGLVQPGGSLRLSCAVSGYTFSMNWVRQAPGKGLEWVAWINMYTGEPTYADDFKGRFTISRDDSKNTLYLQMNSLRAEDTAVYYCARLYNGNSLDYWGQGTLVTVSS
VL: DIQMTQSPSSLSASVGDRVTITCKSSQSLLNSGNQKSYLTWYQQKPGKAPKLLIYWASTLESGVPSRFSGSGSGTDYTLTISSLQPEDFATYYCQNAYFFPFTFGQGTKVEIKR
notes: Whole human IgG1 produced as described under 'Production of Recombinant Antibodies'
ADCC reporter assay, EC50 (FIG. 24A) [5]: 0.00443 nM | ADCC reporter assay, EC50 (FIG. 18) [6]: 0.0561 nM | CDC against Mia Paca-CLDN 18.2 cells, EC50 (FIG. 17B) [6]: 0.52 nM | ADCC Reporter in MCF7-CLDN 18.2, EC50 [7]: 0.006 nM | ADCC Reporter in HEK293-CLDN18.2, EC50 [8]: 0.056 nM | CDC in HEK293-CLDN 18.2, EC50 [8]: 0.43 nM | CDC in MiaPaCa-CLDN 18.2, EC50 [8]: 0.52 nM | Kd [9]: 0.133 nM | Kd [10]: 0.13 nM | Kd [11]: 0.0819 nM

B3: 9O36-oae with LC55E, phage-displayed Fab (Fab, V domains shown)
VH: B2 VH with N98R
VL: DIQMTQSPSSLSASVGDRVTITCKSSQSLLNWGNQKSYLTWYQQKPGKAPKLLIYWASTLESGVPSRFSGSGSGTDYTLTISSLQPEDFATYYCQNAYFFPFTFGQGTKVEIK
notes: built from 9O36-oae with light chain residue 55 (Kabat; the sixth residue of VL CDR2 WASTLMS) mutated back to Glu; also called 9O36 oaeL2
binding affinity [12]: 0.059

B4: 9O41, phage-displayed Fab (Fab, V domains shown)
VH: B2 VH with P55R
VL: B3 VL with W32S, Q35I, E61R, F99S
binding affinity [12]: 0.167

B5: 9O47-oaeE (9O47-oae with LC55E), phage-displayed Fab (Fab, V domains shown)
VH: B2 VH with T56I, N98R
VL: B3 VL
notes: also called 9O47 oaeL2; 9O47 with 5C9oae and L2 mutations
binding affinity [12]: 0.0533 | IC50 (read off the curve) [13]: ~0.06 nM

B6: 9O45, phage-displayed Fab (Fab, V domains shown)
VH: B2 VH with P55T
VL: B3 VL with E61Y, F99S
binding affinity [12]: 0.104 | IC50 (read off the curve) [14]: ~0.1 nM

B7: 9O45-oae with LC55E, phage-displayed Fab (Fab, V domains shown)
VH: B2 VH with P55T, N98R
VL: B3 VL
notes: built from 9O45-oae with light chain residue 55 (Kabat; the sixth residue of VL CDR2 WASTLYS) mutated back to Glu; also called 9O45 oaeL2
binding affinity [12]: 0.0562

B8: 9O47E (9O47 with LC55E), phage-displayed Fab (Fab, V domains shown)
VH: B2 VH with T56I
VL: B3 VL with F99S
notes: also called 9O47 LC55E (L2)
binding affinity [12]: 0.141

B9: 9O24, phage-displayed Fab (Fab, V domains shown)
VH: B2 VH with P55K
VL: B3 VL with W32S, Q35W, E61V, F99S
binding affinity [12]: 0.144 | IC50 (read off the curve) [14]: ~0.2 nM

B10: 5C9ob, phage-displayed Fab (Fab, V domains shown)
VH: B2 VH
VL: B3 VL with W32S
notes: also called 5C9o with 5C9ob mutations
binding affinity [12]: 0.221

B11: 9O24-oae with LC55E, phage-displayed Fab (Fab, V domains shown)
VH: B2 VH with P55K, N98R
VL: B3 VL with W32S, Q35W
notes: built from 9O24-oae with light chain residue 55 (Kabat; the sixth residue of VL CDR2 WASTLVS) mutated back to Glu; also called 9O24 oaeL2
binding affinity [12]: 0.0604

B12: 5C9oap-oaeE (5C9oap-oae with LC55E), phage-displayed Fab (Fab, V domains shown)
VH: B2 VH with P55R, N98R
VL: B3 VL
notes: also called 5C9oap oaeL2; 5C9oap with 5C9oae and L2 mutations
binding affinity [12]: 0.0593 | IC50 (read off the curve) [13]: ~0.06 nM

B13: 9O36, phage-displayed Fab (Fab, V domains shown)
VH: B2 VH
VL: B3 VL with E61M, F99S
binding affinity [12]: 0.108

B14: 9O47, phage-displayed Fab (Fab, V domains shown)
VH: B2 VH with T56I
VL: B3 VL with E61F, F99S
binding affinity [12]: 0.095 | IC50 (read off the curve) [14]: ~0.1 nM | Kd [14]: 0.095 nM

B15: Db11-21, heterodimeric (knob/hole) anti-CLDN 18.2/anti-PD-L1 bispecific antibody (bispecific antibody)
chain 1: not shown
chain 2: EIVLTQSPGTLSLSPGERATLSCRASQRVSSSYLAWYQQKPGQAPRLLIYDASSRATGIPDRFSGSGSGTDFTLTISRLEPEDFAVYYCQQYGSLPWTFGQGTKVEIKRSGGGGEVQLVESGGGLVQPGGSLRLSCAVSGYTFSMNWVRQAPGKGLEWVAWINMYTGEPTYADDFKGRFTISRDDSKNTLYLQMNSLRAEDTAVYYCARLYNGNSLDYWGQGTLVTVSSGGGGSEPKSSDKTHTCPPCPAPELLGGPSVFLFPPKPKDTLMISRTPEVTCVVVDVSHEDPEVKFNWYVDGVEVHNAKTKPREEQYNSTYRVVSVLTVLHQDWLNGKEYKCKVSNKALPAPIEKTISKAKGQPREPQVCTLPPSREEMTKNQVSLSCAVKGFYPSDIAVEWESNGQPENNYKTTPPVLDSDGSFFLVSKLTVDKSRWQQGNVFSCSVMHEALHNRFTQKSLSLSPGK
notes: Db11: 5C9ob VL-L1-durvalumab VH-L2-knob Fc; Db21: durvalumab VL-L3-5C9ob VH-L4-hole Fc; also called Db11/Db21
Kd [15]: 0.378 nM | Kd [11]: 0.104 nM
